From patent US20260070940A1 (Hoffmann-La Roche, published 2026) come the findings set out here.

The target in test [1] is T1, soluble human Lag3-IgG1-Fc with biotinylated C-terminal Avi-tag (human, biotin on the Avi-tag).
T1 construct: Lag3 ECD, IEGRMD linker, IgG1 Fc, Avi-tag; also called LAG3-Fc-avi; biotinylated LAG3-Fc
Put plainly: SPR, LAG3-Fc immobilised.

Test [2] addresses T2, hu(NA1)BA-avi-His, biotinylated (human, biotin on the avi-tag).
T2 construct: CEACAM5 domains N and A1 followed by two CEACAM1 Ig domains, avi-tag and his-tag; also called CEA antigen; chimera of CEACAM5 domains N and A1 on CEACAM1
T2 chain: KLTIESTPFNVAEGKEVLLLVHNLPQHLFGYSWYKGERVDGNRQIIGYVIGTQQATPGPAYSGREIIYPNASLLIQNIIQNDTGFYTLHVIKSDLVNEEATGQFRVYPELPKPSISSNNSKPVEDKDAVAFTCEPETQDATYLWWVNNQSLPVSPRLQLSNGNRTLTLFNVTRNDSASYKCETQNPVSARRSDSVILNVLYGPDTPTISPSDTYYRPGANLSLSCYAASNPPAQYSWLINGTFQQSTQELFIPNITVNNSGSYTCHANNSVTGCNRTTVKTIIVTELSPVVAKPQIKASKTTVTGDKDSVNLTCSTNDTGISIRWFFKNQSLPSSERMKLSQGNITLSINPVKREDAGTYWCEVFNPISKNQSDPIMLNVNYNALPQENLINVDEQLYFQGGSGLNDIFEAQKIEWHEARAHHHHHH
Description: SPR, purified aVH. For orientation: SPR reads the build-up and loss of mass on a sensor chip optically.
Description: CEACAM1-avi-his was again used as a negative control Immobilization of recombinant antigens (ligand): Antigen was diluted with PBST (10 mM phosphate, 150 mM sodium chloride pH 7.4, 0.005% Tween 20) to 10 μg/ml, then injected at 30 μl/minute at varying contact times, to achieve immobilization levels of 200, 400 or 800 response units (RU) in vertical orientation. […] Buffer (PBST) was injected along the sixth channel to provide an “in-line” blank for referencing. Association rate constants (kₒₙ) and dissociation rate constants (koff) were calculated using a simple one-to-one Langmuir binding model in ProteOn Manager v3.1 software by simultaneously fitting the association and dissociation sensorgrams. The equilibrium dissociation constant (KD) was calculated as the ratio koff/kₒₙ.

Test [3] concerns the target T2, hu(NA1)BA-avi-His, biotinylated. Put plainly: SPR, bacterial supernatant.
Description: The off-rate of selected aVH clones was measured using a ProteOn XPR36 instrument (Biorad) at 25° C. with biotinylated hu(NA1)BA-avi-His immobilized on NLC chips by neutravidin capture. CEACAM1-avi-his was used as a negative control. Immobilization of recombinant antigens (ligand): Antigens were diluted with PBST (10 mM phosphate, 150 mM sodium chloride pH 7.4, 0.005% Tween 20) to 10 μg/ml, then injected at 30 μl/minute at varying contact times, to achieve immobilization levels of 400, 800 or 1600 response units (RU) in vertical orientation. Injection of analytes: Injection direction was changed to horizontal orientation and 5 individual aVH-containing supernatants that were diluted 1:3 with PBST were injected simultaneously at 60 μl/min along separate channels 1-5, with association times between 120 and 180s, and dissociation times of 800s. Diluted bacterial supernatant without aVH was injected along the sixth channel to provide an “in-line” blank for referencing. Dissociation rate constants (koff) were calculated using the “koff-rate” calculation in ProteOn Manager v3.1 software.
Test [4] concerns the target T3, full-length human CEA with N-terminal SNAP tag on transfected HEK293 cells (human, UniProt P06731 35-685, SNAP tag labelled with terbium).
T3 construct: whole, on cells; also called hu CEA-SNAP; CEACAM5
T3 sequence (looked up): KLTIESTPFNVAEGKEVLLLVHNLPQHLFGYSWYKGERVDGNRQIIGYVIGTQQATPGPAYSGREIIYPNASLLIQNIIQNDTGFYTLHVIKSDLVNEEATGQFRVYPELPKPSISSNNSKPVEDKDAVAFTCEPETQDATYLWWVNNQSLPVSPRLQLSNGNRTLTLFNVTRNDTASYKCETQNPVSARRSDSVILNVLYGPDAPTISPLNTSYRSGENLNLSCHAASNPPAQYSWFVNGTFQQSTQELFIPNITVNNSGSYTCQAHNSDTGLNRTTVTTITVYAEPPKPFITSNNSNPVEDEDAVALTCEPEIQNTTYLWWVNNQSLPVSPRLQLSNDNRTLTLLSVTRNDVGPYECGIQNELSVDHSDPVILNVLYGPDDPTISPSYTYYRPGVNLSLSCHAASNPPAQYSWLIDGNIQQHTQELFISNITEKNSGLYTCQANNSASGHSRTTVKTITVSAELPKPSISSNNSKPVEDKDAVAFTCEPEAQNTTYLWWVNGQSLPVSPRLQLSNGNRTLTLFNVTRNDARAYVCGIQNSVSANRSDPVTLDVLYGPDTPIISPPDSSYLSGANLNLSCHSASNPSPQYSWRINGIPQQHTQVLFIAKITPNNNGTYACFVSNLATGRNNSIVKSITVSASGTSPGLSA
Put plainly: FRET (TagLite) on hu CEA-SNAP cells.
Description: Binding of a selected set of purified aVH binders to their epitope on CEA-expressing cells was determined by Fluorescence Resonance Energy Transfer (FRET) analysis. For this analysis, the DNA sequence encoding for the SNAP Tag (plasmid purchased from Cisbio) was amplified by PCR and ligated into an expression vector, containing the full length human CEA sequence. The resulting fusion protein was comprised of full-length CEA with an N-terminal SNAP tag. HEK293 cells were transfected with 10 μg DNA using Lipofectamine 2000 as transfection reagent. After an incubation time of 20 h, cells were washed with PBS and incubated for 1 h at 37° C. in LabMed buffer (Cisbio) containing 100 nM SNAP-Lumi4Tb (Cibsio), leading to specific labeling of the SNAP Tag. Subsequently, cells were washed 4 times with LabMed buffer to remove unbound dye. […] Cells were then stored frozen at −80° C. for up to 6 months. Binding was measured by adding CEA-specific aVH binders at a concentration ranging from 0.005 up to 100 nM to labeled cells (100 cells per well) followed by addition of d2-labeled anti-his tag antibody (Cisbio, final concentration was 200 nM per well) as acceptor molecule for the FRET. […] The ratio of acceptor to donor emission was calculated and the ratio of the background control (cells only incubated with anti-his tag antibody) subtracted. Curves were analysed in GraphPad Prism5 (FIG. 9) and KDs calculated (Table 26).

In test [5] the target is T4, MCSP antigen, amino acids 1553 to 2184 of matured MCSP with C-terminal avi-tag and His-tag, biotinylated (Homo sapiens (Human), UniProt Q6UVK1 1582-2213, limits assumed, biotin on the avi-tag).
T4 construct: also called recombinant MCSP
T4 sequence: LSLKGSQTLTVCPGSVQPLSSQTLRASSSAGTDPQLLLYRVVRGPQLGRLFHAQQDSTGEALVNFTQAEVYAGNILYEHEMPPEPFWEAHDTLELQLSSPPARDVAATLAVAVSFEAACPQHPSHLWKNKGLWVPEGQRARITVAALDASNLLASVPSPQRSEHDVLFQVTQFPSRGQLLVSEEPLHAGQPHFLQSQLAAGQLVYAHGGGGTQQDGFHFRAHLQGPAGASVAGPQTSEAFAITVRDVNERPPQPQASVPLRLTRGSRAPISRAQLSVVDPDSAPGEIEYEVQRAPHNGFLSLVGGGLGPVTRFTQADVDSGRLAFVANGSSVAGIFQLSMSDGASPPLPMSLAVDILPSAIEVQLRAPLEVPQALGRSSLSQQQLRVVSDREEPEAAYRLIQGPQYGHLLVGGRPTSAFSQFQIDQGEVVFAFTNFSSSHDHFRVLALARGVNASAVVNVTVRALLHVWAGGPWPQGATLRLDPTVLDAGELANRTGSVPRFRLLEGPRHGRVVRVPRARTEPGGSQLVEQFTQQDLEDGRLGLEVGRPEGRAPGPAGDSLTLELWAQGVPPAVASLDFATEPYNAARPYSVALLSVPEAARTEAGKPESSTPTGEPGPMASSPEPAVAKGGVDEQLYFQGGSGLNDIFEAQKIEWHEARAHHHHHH
Description: SPR, MCSP immobilised.

In test [6] the target is T1, soluble human Lag3-IgG1-Fc with …. Put plainly: ELISA, supernatant on biotinylated antigen. (An ELISA detects its analyte on a solid surface through an enzyme-linked reagent.)

Usually Kd stands for the equilibrium constant for the complex coming apart. The term koff denotes the first-order rate constant of dissociation. A higher koff goes with fast dissociation. The term kon denotes the second-order rate constant of association.

T1 sequence (chain, as listed by the source limits assumed): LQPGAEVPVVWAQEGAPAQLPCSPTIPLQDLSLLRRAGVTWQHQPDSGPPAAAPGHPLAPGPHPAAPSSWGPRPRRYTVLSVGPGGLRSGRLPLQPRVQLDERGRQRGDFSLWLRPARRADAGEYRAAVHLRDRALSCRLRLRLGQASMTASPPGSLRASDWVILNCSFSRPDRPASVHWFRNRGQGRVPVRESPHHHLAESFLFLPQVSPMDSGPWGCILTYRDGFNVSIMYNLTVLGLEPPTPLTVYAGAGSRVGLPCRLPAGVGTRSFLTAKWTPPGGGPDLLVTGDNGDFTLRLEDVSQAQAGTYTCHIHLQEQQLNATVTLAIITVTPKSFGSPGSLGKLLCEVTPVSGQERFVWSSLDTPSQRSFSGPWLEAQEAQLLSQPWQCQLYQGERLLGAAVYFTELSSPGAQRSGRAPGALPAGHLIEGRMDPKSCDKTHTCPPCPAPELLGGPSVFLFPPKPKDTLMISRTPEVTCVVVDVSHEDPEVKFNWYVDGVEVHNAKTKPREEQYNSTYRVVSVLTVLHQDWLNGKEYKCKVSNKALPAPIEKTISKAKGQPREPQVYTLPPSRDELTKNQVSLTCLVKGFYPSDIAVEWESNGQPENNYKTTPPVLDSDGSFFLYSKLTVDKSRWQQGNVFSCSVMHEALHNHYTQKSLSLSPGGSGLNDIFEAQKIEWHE

B1: LAG3 P11A2 aVH (VHH)
VHH: EVQLVESGGGLVQPGGSLRLSCAASSFNIKDTYIGWVRRAPGKGTELVAEIACHEGTTRYADSVKGRFTISCDTSKNTAYLQMNSLRAEDTAVYYCANTEYDDIFDYWGQGTTVTVSS
In the case of B1, in test [1], the Kd came out at 55 nM, the off-rate constant (koff) was determined as 0.0138 s⁻¹ and the kon was 251000 M⁻¹ s⁻¹.

B2: anti-CEA aVH P112.083 (VHH)
VHH: EVQLVESGGGLVQPGGSLRLSCAASGFNIKDTCIGWVRRAPGKEEELVADICPYKGSTRYADSVKGRFTISADTSKNTAYLQMNSLRAEDTAVYYCAIVSARDGYYNYWGQGTTVTVSS
Take B2: the Kd in test [2] came to 7.26 nM; in test [4] it was 10.4 nM. In test [3], this molecule registered a koff of 0.00034 s⁻¹.

B3: anti-CEA aVH P112.068 (VHH)
VHH: EVQLVESGGGLVQPGGSLRLSCAASGFNIKDTCIGWVRRAPGKEEELVAKICKYSGHTRYADSVKGRFTISADTSKNTAYLQMNSLRAEDTAVYYCAAVSVRDGHYNYWGQGTTVTVSS
Turning to B3, the values for the equilibrium dissociation constant (Kd) in test [2] and in test [4] were 16.2 nM and 14.6 nM, respectively. In test [3], the koff amounted to 0.0016 s⁻¹.

B4: anti-CEA aVH P127.141 (VHH)
VHH: EVQLVESGGGLVQPGGSLRLSCAASGFNIKDTCIGWVRRAPGKEEELVAGICEYTGSTRYADSVKGRFTISADTSKNTAYLQMNSLRAEDTAVYYCAIVSQSRSVYNYWGQGTTVTVSS
Turning to B4, the Kd in test [2] worked out at 135 nM; in test [4], 28.3 nM. Also, the koff in test [3] was 0.0317 s⁻¹.

B5: anti-CEA aVH P124.067 (VHH)
VHH: EVQLVESGGGLVQPGGSLRLSCAASGFNIKDTCIGWVRRAPGKEEELVAAICEYKGYTRYADSVKGRFTISADTSKNTAYLQMNSLRAEDTAVYYCAIASPVDQYYNYWGQGTTVTVSS
As for B5, the Kd in test [2] is 296 nM; in test [4], 74.3 nM. For the same molecule, in test [3], the koff came out at 0.00704 s⁻¹.

B6: anti-CEA aVH P118.093 (VHH)
VHH: EVQLVESGGGLVQPGGSLRLSCAASGFNIKDTCIGWVRRAPGKEEELVADICPSYGGTRYADSVKGRFTISADTSKNTAYLQMNSLRAEDTAVYYCAIVSKIDQYYNYWGQGTTVTVSS
Turning to B6, the results for the Kd in test [2] and in test [4] were 102 nM and 47.3 nM, respectively. In test [3], this molecule registered a koff of 0.033 s⁻¹.

B7: anti-CEA aVH P118.008 (VHH)
VHH: EVQLVESGGGLVQPGGSLRLSCAASGFNIKDTCIGWVRRAPGKEEELVAYICNYTGYTRYADSVKGRFTISADTSKNTAYLQMNSLRAEDTAVYYCAITSYHGQGYNYWGQGTTVTVSS
Regarding B7, the Kd in test [2] was determined as 96.2 nM; in test [4] it was 28.6 nM. The koff in test [3] came to 0.0305 s⁻¹.

B8: anti-CEA aVH P124.037 (VHH)
VHH: EVQLVESGGGLVQPGGSLRLSCAASGFNIKDTCIGWVRRAPGKEEELVAQICQYHGSTRYADSVKGRFTISADTSKNTAYLQMNSLRAEDTAVYYCAIVGQNYPVYNYWGQGTTVTVSS
B8: the results for the Kd in test [2] and in test [4] were 15.2 nM and 11.1 nM, respectively. Also, the koff in test [3] was 0.0395 s⁻¹.

B9: anti-MCSP aVH clone 2 (VHH)
VHH: EVQLVESGGGLVQPGGSLRLSCAASSFNIKDTYIGWVRRAPGKGTELVASIDCIYGYTRYADSVKGRFTISCDTSKNTAYLQMNSLRAEDTAVYYCAAQGYRLHYWGQGTTVTVSS
In test [5], B9 showed a Kd of 8 nM, a koff of 0.00339 s⁻¹ and a kon of 458000 M⁻¹ s⁻¹.

B10: anti-MCSP aVH clone 57.1 (VHH)
VHH: EVQLVESGGGLVQPGGSLRLSCAASGFNIKQNCIEWVRRAPGKGTELVANICHDIGSTRYADSVKGRFTISADTSKNTAYLQMNSLRAEDTAVYYCAAWEQKGFNYWGQGTTVTVSS
As for B10, in test [5], binding was characterised by a dissociation constant (Kd) of 48 nM, the koff was determined as 0.0142 s⁻¹ and the kon came out at 295000 M⁻¹ s⁻¹.

B11: anti-MCSP aVH clone 44 (VHH)
VHH: EVQLVESGGGLVQPGGSLRLSCAASGFNIKDGYIDWVRRAPGKGTELVASIECTNGRATRYADSVKGRFTISCDTSKNTAYLQMNSLRAEDTAVYYCAYAGIGYYFYYWGQGTTVTVSS
In the case of B11, in test [5], binding was put at a Kd of 109 nM, the koff is 0.0163 s⁻¹ and the kon turned out to be 150000 M⁻¹ s⁻¹.

B12: anti-CEA aVH P123.065 (VHH)
VHH: EVQLVESGGGLVQPGGSLRLSCAASGFNIKDSSTYIGWVRRAPGKEEELVASISCSRGNTRYADSVKGRFTISCDTSKNTAYLQMNSLRAEDTAVYYCAHPRYTWYDYWGQGTTVTVSS
With B12, the results for the equilibrium dissociation constant (Kd) in test [2] and in test [4] were 89.1 nM and 190 nM, respectively. Also, in test [3], the koff amounted to 0.0278 s⁻¹.

B13: anti-CEA aVH P118.089 (VHH)
VHH: EVQLVESGGGLVQPGGSLRLSCAASGFNIKDTCIGWVRRAPGKEEELVASICQYSGYTRYADSVKGRFTISADTSKNTAYLQMNSLRAEDTAVYYCAITSHHGDYNYWGQGTTVTVSS
Turning to B13, the Kd is 37.9 nM in test [2] and 16.8 nM in test [4]. The koff in test [3] amounted to 0.0599 s⁻¹.

B14: LAG3 P10D1 aVH (VHH)
VHH: EVQLVESGGGLVQPGGSLRLSCAASGFSIKDTCIAWVRRAPGKGTELVAEICEDIGYTRYADSVKGRFTISADTSKNTAYLQMNSLRAEDTAVYYCAAKEAGVGFDYWGQGTTVTVSS
notes: also called P110D1
Turning to B14, in test [1], the Kd was determined as 27 nM, the koff turned out to be 0.00383 s⁻¹ and the kon came out at 144000 M⁻¹ s⁻¹.

B15: LAG3 9B4 aVH (VHH)
VHH: EVQLVESGGGLVQPGGSLRLSCAASGFNIKDTCIGWVRRAPGKGTELVAEICQDIGYTRYADSVKGRFTISADTSKNTAYLQMNSLRAEDTAVYYCAAVEVAEYFEYWGQGTTVTVSS
In test [1], B15 came in with a Kd of 86 nM, an off-rate (koff) of 0.00314 s⁻¹ and a kon of 36500 M⁻¹ s⁻¹.

B16: SEQ ID NO 79 (VHH)
VHH: EVQLVESGGGLVQPGGSLRLSCAASGFNIKDTCIGWVRRAPGKGTELVAEICQDIGYTRYADSVKGRFTISADTSKNTAYLQMNSLRAEDTAVYYCAADESVDNFKYWGQGTTVTVSS
notes: also called LAG3-specific aVH
Consider B16, for which, in test [6], the binding result was “binds”.

B17: SEQ ID NO 77 (VHH)
VHH: EVQLVESGGGLVQPGGSLRLSCAASGFNIKDTCIGWVRRAPGKGTELVAEICTDIGYTRYADSVKGRFTISADTSKNTAYLQMNSLRAEDTAVYYCAAGEGSSGFHYWGQGTTVTVSS
notes: also called LAG3-specific aVH
On to B17, for which, in test [6], the binding result is reported as “binds”.

B18: SEQ ID NO 83 (VHH)
VHH: EVQLVESGGGLVQPGGSLRLSCAASGFNIKDTCIGWVRRAPGKGTELVAEICEDIGYTRYADSVKGRFTISADTSKNTAYLQMNSLRAEDTAVYYCAANEHSVGFNYWGQGTTVTVSS
notes: also called LAG3-specific aVH
Consider B18, for which, in test [6], the binding result is recorded as “binds”.
